The results in this text go back to PMC12775393.

For experiment [1], the target named is S16-biotinylated E. coli 70S ribosome, translating the hairpin-less mRNA (E. coli) (UniProt P0A7K2). The experiment can be described thus: optical tweezers with single-molecule fluorescence detection (fleezers); assisting force assay; ribosome tethered by biotinylated S16 to one bead and the 5' end of a hairpin-less mRNA to the other, 9-12 pN; Cy3-labeled EF-G in solution, GTP (1 mM stated for the H92Q and H92A mutants), 1x TLC buffer.

For experiment [2], the target named is E. coli MRE600 tight-couple 70S ribosome (natural), translating the V50 hairpin mRNA (E. coli (endogenous in MRE600)) (UniProt P0A7K2). Briefly: optical tweezers with single-molecule fluorescence detection (fleezers); hairpin unwinding assay; ribosome stalled on the V50 mRNA hairpin tethered between two beads at ~14 pN (13.5-14.5 pN); 10 nM Cy3-labeled EF-G in the translation mix, 1 mM GTP, 1x TLC buffer (40 mM HEPES pH 7.5, 60 mM NH4Cl, 10 mM Mg(OAc)2, 6 mM βME).

The target is the same in experiment [3]. The experiment can be described thus: optical tweezers with single-molecule fluorescence detection (fleezers); hairpin unwinding assay as a1, GDPNP:GTP ratio 1:9 at constant total nucleotide concentration; slow population of a bi-exponential fit.
Experiment [4] shares this target. Briefly: optical tweezers with single-molecule fluorescence detection (fleezers); hairpin unwinding assay as a1, GDPNP:GTP ratio 3:1 at constant total nucleotide concentration; slow population of a bi-exponential fit.
For experiment [5] the target is unchanged. The experiment can be described thus: optical tweezers with single-molecule fluorescence detection (fleezers); hairpin unwinding assay as a1, with a mixture of 1 mM GTP and 0.5 mM GDPNP; slow population of a bi-exponential fit.
Experiment [6] shares this target. The experiment can be described thus: optical tweezers with single-molecule fluorescence detection (fleezers); hairpin unwinding assay as a1, with a mixture of 1 mM GTP and 0.5 mM GTPγS; slow population of a bi-exponential fit.

“Cy3-labeled H92A EF-G (made from EF-G(S73C)) (from UniProt P0A6M8 1-704) (enzyme)” came in with a τ post (time between the mRNA step and EF-G unbinding) in experiment [1] of more than 20 s. In addition, in experiment [2], the τ release (time between hairpin unwinding and EF-G release) worked out at 20 s.

Take “Cy3-labeled H92Q EF-G (made from EF-G(S73C)) (from UniProt P0A6M8 1-704) (enzyme)”: in experiment [2], the τ release (time between hairpin unwinding and EF-G release) is 2 s.

Turning to “Cy3-labeled EF-G, single-cysteine variant EF-G(S73C) (from UniProt P0A6M8 1-704) (enzyme)”, the τ release, slow (GDPNP) population in experiment [3] is 2.5 s. The mean total dwell time of EF-G on the ribosome (τpre + τ post) in experiment [1] stood at 308 ms. Moreover, in experiment [2], the mean dwell time of unproductive binding events (τ unproductive) is 300 ms; the mean total dwell time of EF-G on the ribosome (τ unwinding + τ release) stood at 445 ms; the τ release (time between hairpin unwinding and EF-G release) was determined as 0.38 s. Also, the τ release, slow (GDPNP) population in experiment [4] is 17 s. Moreover, in experiment [5], the τ release, slow (GDPNP) population stood at 8.5 s. In addition, the τ release, slow (GTPγS) population in experiment [6] turned out to be 1.8 s.
